According to paper PMC7593955 (2020):

B8: ferrochelatase (FECH) (protein)
chain: GAKPQVQPQKRKPKTGILMLNMGGPETLGDVHDFLLRLFLDRDLMTLPIQNKLAPFIAKRRTPKIQEQYRRIGGGSPIKIWTSKQGEGMVKLLDELSPNTAPHKYYIGFRYVHPLTEEAIEEMERDGLERAIAFTQYPQYSCSTTGSSLNAIYRYYNQVGRKPTMKWSTIDRWPTHHLLIQCFADHILKELDHFPLEKRSEVVILFSAHSLPMSVVNRGDPYPQEVSATVQKVMERLEYCNPYRLVWQSKVGPMPWLGPQTDESIKGLCERGRKNILLVPIAFTSDHIETLYELDIEYSQVLAKECGVENIRRAESLNGNPLFSKALADLVHSHIQSNELCSKQLTLSCPLCVNPVCRETKSFFTSQQL

Key:
Assay in all cases: SPR
[1] = biological target: Adrenodoxin reductase (Homo sapiens) (UniProt P22570); details: cited from earlier work
[2] = biological target: Adrenodoxin reductase (Homo sapiens) (UniProt P22570); details: cited from earlier work; remark: listed apart in the source
[3] = biological target: T1, adrenodoxin reductase (ADR) (Homo sapiens, UniProt P22570)
T1 chain: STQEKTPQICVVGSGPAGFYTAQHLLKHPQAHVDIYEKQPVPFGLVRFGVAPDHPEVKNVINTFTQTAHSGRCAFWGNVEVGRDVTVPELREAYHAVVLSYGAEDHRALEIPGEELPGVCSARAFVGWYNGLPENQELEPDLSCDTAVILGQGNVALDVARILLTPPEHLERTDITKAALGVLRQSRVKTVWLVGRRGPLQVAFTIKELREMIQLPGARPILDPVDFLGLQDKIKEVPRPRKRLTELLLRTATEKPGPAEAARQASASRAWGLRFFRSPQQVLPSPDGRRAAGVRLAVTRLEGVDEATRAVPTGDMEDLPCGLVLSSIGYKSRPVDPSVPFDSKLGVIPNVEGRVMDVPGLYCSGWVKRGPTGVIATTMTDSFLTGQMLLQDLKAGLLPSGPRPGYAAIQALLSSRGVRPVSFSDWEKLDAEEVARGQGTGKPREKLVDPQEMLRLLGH

ferrochelatase (FECH) = biological target: B8
SPR = biological target: the molecule itself

In the case of Ferrochelatase (from UniProt P22830), the Kd [1] is given as 13000 nM and the Kd [2] is given as 2000 nM.

B1: ferrochelatase (FECH) (protein)
chain: GAKPQVQPQKRKPKTGILMLNMGGPETLGDVHDFLLRLFLDRDLMTLPIQNKLAPFIAKRRTPKIQEQYRRIGGGSPIKIWTSKQGEGMVKLLDELSPNTAPHKYYIGFRYVHPLTEEAIEEMERDGLERAIAFTQYPQYSCSTTGSSLNAIYRYYNQVGRKPTMKWSTIDRWPTHHLLIQCFADHILKELDHFPLEKRSEVVILFSAHSLPMSVVNRGDPYPQEVSATVQKVMERLEYCNPYRLVWQSKVGPMPWLGPQTDESIKGLCERGRKNILLVPIAFTSDHIETLYELDIEYSQVLAKECGVENIRRAESLNGNPLFSKALADLVHSHIQSNELCSKQLTLSCPLCVNPVCRETKSFFTSQQL
modifications: 100 uM 5-nitroisatin
Molecule B1 has a Kd [3] of 13700 nM and a Kd (ferrochelatase (FECH)) of 560 nM.

B2: ferrochelatase (FECH) (protein)
chain: GAKPQVQPQKRKPKTGILMLNMGGPETLGDVHDFLLRLFLDRDLMTLPIQNKLAPFIAKRRTPKIQEQYRRIGGGSPIKIWTSKQGEGMVKLLDELSPNTAPHKYYIGFRYVHPLTEEAIEEMERDGLERAIAFTQYPQYSCSTTGSSLNAIYRYYNQVGRKPTMKWSTIDRWPTHHLLIQCFADHILKELDHFPLEKRSEVVILFSAHSLPMSVVNRGDPYPQEVSATVQKVMERLEYCNPYRLVWQSKVGPMPWLGPQTDESIKGLCERGRKNILLVPIAFTSDHIETLYELDIEYSQVLAKECGVENIRRAESLNGNPLFSKALADLVHSHIQSNELCSKQLTLSCPLCVNPVCRETKSFFTSQQL
modifications: 100 uM 5,7-dichloroisatin
B2 showed a Kd [3] of 14700 nM and a Kd (ferrochelatase (FECH)) of 580 nM.

B3: ferrochelatase (FECH) (protein)
chain: GAKPQVQPQKRKPKTGILMLNMGGPETLGDVHDFLLRLFLDRDLMTLPIQNKLAPFIAKRRTPKIQEQYRRIGGGSPIKIWTSKQGEGMVKLLDELSPNTAPHKYYIGFRYVHPLTEEAIEEMERDGLERAIAFTQYPQYSCSTTGSSLNAIYRYYNQVGRKPTMKWSTIDRWPTHHLLIQCFADHILKELDHFPLEKRSEVVILFSAHSLPMSVVNRGDPYPQEVSATVQKVMERLEYCNPYRLVWQSKVGPMPWLGPQTDESIKGLCERGRKNILLVPIAFTSDHIETLYELDIEYSQVLAKECGVENIRRAESLNGNPLFSKALADLVHSHIQSNELCSKQLTLSCPLCVNPVCRETKSFFTSQQL
modifications: NHS/EDC-treated immobilized FECH
Work on B3 yielded a Kd (ferrochelatase (FECH)) of ~500 nM.

B4: ferrochelatase (FECH) (protein)
chain: GAKPQVQPQKRKPKTGILMLNMGGPETLGDVHDFLLRLFLDRDLMTLPIQNKLAPFIAKRRTPKIQEQYRRIGGGSPIKIWTSKQGEGMVKLLDELSPNTAPHKYYIGFRYVHPLTEEAIEEMERDGLERAIAFTQYPQYSCSTTGSSLNAIYRYYNQVGRKPTMKWSTIDRWPTHHLLIQCFADHILKELDHFPLEKRSEVVILFSAHSLPMSVVNRGDPYPQEVSATVQKVMERLEYCNPYRLVWQSKVGPMPWLGPQTDESIKGLCERGRKNILLVPIAFTSDHIETLYELDIEYSQVLAKECGVENIRRAESLNGNPLFSKALADLVHSHIQSNELCSKQLTLSCPLCVNPVCRETKSFFTSQQL
modifications: 100 uM 5-methylisatin
B4 showed a Kd [3] of 14300 nM and a Kd (ferrochelatase (FECH)) of 570 nM.

B5: ferrochelatase (FECH) (protein)
chain: GAKPQVQPQKRKPKTGILMLNMGGPETLGDVHDFLLRLFLDRDLMTLPIQNKLAPFIAKRRTPKIQEQYRRIGGGSPIKIWTSKQGEGMVKLLDELSPNTAPHKYYIGFRYVHPLTEEAIEEMERDGLERAIAFTQYPQYSCSTTGSSLNAIYRYYNQVGRKPTMKWSTIDRWPTHHLLIQCFADHILKELDHFPLEKRSEVVILFSAHSLPMSVVNRGDPYPQEVSATVQKVMERLEYCNPYRLVWQSKVGPMPWLGPQTDESIKGLCERGRKNILLVPIAFTSDHIETLYELDIEYSQVLAKECGVENIRRAESLNGNPLFSKALADLVHSHIQSNELCSKQLTLSCPLCVNPVCRETKSFFTSQQL
modifications: 100 uM isatin
B5 gave a Kd [3] of 3400 nM and a Kd (ferrochelatase (FECH)) of 600 nM.

B6: ferrochelatase (FECH) (protein)
chain: GAKPQVQPQKRKPKTGILMLNMGGPETLGDVHDFLLRLFLDRDLMTLPIQNKLAPFIAKRRTPKIQEQYRRIGGGSPIKIWTSKQGEGMVKLLDELSPNTAPHKYYIGFRYVHPLTEEAIEEMERDGLERAIAFTQYPQYSCSTTGSSLNAIYRYYNQVGRKPTMKWSTIDRWPTHHLLIQCFADHILKELDHFPLEKRSEVVILFSAHSLPMSVVNRGDPYPQEVSATVQKVMERLEYCNPYRLVWQSKVGPMPWLGPQTDESIKGLCERGRKNILLVPIAFTSDHIETLYELDIEYSQVLAKECGVENIRRAESLNGNPLFSKALADLVHSHIQSNELCSKQLTLSCPLCVNPVCRETKSFFTSQQL
modifications: 100 uM 5-fluoroisatin
In the case of B6, the Kd [3] is reported as 13800 nM and the Kd (ferrochelatase (FECH)) is reported as 610 nM.

B7: ferrochelatase (FECH) (protein)
chain: GAKPQVQPQKRKPKTGILMLNMGGPETLGDVHDFLLRLFLDRDLMTLPIQNKLAPFIAKRRTPKIQEQYRRIGGGSPIKIWTSKQGEGMVKLLDELSPNTAPHKYYIGFRYVHPLTEEAIEEMERDGLERAIAFTQYPQYSCSTTGSSLNAIYRYYNQVGRKPTMKWSTIDRWPTHHLLIQCFADHILKELDHFPLEKRSEVVILFSAHSLPMSVVNRGDPYPQEVSATVQKVMERLEYCNPYRLVWQSKVGPMPWLGPQTDESIKGLCERGRKNILLVPIAFTSDHIETLYELDIEYSQVLAKECGVENIRRAESLNGNPLFSKALADLVHSHIQSNELCSKQLTLSCPLCVNPVCRETKSFFTSQQL
modifications: 100 uM 5-iodoisatin
For B7, the Kd [3] was 14100 nM and the Kd (ferrochelatase (FECH)) was 540 nM.

B8 showed a Kd [3] of 15200 nM and a Kd (SPR) of 550 nM.

B9: ferrochelatase (FECH) (protein)
chain: GAKPQVQPQKRKPKTGILMLNMGGPETLGDVHDFLLRLFLDRDLMTLPIQNKLAPFIAKRRTPKIQEQYRRIGGGSPIKIWTSKQGEGMVKLLDELSPNTAPHKYYIGFRYVHPLTEEAIEEMERDGLERAIAFTQYPQYSCSTTGSSLNAIYRYYNQVGRKPTMKWSTIDRWPTHHLLIQCFADHILKELDHFPLEKRSEVVILFSAHSLPMSVVNRGDPYPQEVSATVQKVMERLEYCNPYRLVWQSKVGPMPWLGPQTDESIKGLCERGRKNILLVPIAFTSDHIETLYELDIEYSQVLAKECGVENIRRAESLNGNPLFSKALADLVHSHIQSNELCSKQLTLSCPLCVNPVCRETKSFFTSQQL
modifications: 100 uM 5-bromoisatin
Molecule B9 has a Kd [3] of 15500 nM and a Kd (ferrochelatase (FECH)) of 530 nM.
